Changes are numbered by the printed parent chain.
Columns and labels:
[1] = biological target: T1, OsMADS1 aa 74-172 (Oryza sativa, UniProt A2XDY1 74-172); test: Y2H; input trait library
T1 construct: prey, AD fusion; also called PN19788
T1 sequence: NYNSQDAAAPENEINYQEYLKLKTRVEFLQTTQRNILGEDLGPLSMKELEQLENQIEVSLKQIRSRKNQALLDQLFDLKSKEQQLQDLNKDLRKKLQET
How it was run: (§1)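 Myriad Genetics Inc. (Salt Lake City, Utah) supplied the automated, high-throughput yeast two-hybrid assay used to detect protein-protein interactions. A bait clone encoding a defined amino-acid fragment of a rice protein was screened against a rice prey library, either the input trait or the output trait library. To identify the interacting proteins, prey clones were retrieved and their encoding sequences were compared against databases by BLAST.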

[2] = biological target: T2, OsMADS1 aa 71-257 (Oryza sativa, UniProt A2XDY1 71-257); test: Y2H; output trait library
T2 construct: prey, AD fusion; also called PN19788
T2 sequence: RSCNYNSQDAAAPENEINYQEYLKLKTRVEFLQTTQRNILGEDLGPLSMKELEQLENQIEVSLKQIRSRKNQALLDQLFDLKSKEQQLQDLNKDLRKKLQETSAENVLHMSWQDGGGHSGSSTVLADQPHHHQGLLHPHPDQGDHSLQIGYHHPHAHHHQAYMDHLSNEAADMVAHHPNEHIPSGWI
How it was run: as §1

[3] = biological target: T3, OsMADS6 aa 70-250 (Oryza sativa, UniProt Q6EU39 70-250); test: Y2H; output trait library
T3 construct: prey, AD fusion; also called PN20233; O. sativa MADS box protein MADS6
T3 sequence: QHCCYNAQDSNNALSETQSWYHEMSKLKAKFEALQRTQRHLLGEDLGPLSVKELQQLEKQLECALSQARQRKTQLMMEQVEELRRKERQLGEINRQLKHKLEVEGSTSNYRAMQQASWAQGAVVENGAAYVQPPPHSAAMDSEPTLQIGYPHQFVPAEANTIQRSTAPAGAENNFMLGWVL
How it was run: as §1

[4] = biological target: T4, OsRAP1B aa 1-158 (Oryza sativa, UniProt Q10CQ1 1-158); test: Y2H; output trait library
T4 construct: prey, AD fusion; also called PN20232; O. sativa AP1-like MADS box protein RAP1B
T4 sequence: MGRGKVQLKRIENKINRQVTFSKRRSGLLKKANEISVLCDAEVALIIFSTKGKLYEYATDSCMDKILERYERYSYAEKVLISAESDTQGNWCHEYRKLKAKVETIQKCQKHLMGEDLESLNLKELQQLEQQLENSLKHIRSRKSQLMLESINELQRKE
How it was run: as §1

[5] = biological target: T5, OsMADS1 aa 82-241 (Oryza sativa, UniProt A2XDY1 82-241); test: Y2H; output trait library
T5 construct: prey, AD fusion; also called PN19788; O. sativa MADS box protein MADS1
T5 sequence: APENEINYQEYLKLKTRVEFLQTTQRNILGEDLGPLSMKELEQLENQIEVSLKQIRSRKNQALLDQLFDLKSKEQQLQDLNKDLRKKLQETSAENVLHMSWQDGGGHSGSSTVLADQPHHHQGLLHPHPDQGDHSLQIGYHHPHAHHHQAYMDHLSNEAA
How it was run: as §1

[6] = biological target: T6, OsFDRMADS6 aa 93-244 (Oryza sativa, UniProt P0C5B1 93-244); test: Y2H; output trait library
T6 construct: prey, AD fusion; also called PN19766
T6 sequence: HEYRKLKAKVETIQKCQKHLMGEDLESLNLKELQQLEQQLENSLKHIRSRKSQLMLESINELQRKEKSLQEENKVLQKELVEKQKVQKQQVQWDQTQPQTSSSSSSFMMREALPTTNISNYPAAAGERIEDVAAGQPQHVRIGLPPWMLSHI
How it was run: as §1

[7] = biological target: T7, OsFDRMADS8 aa 94-230 (Oryza sativa, UniProt A2Z9Q7 94-230); test: Y2H; output trait library
T7 construct: prey, AD fusion; also called PN20698
T7 sequence: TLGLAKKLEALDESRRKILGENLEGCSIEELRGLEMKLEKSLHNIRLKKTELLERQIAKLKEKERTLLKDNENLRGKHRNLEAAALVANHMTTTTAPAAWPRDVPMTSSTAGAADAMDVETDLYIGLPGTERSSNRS
How it was run: as §1

[8] = biological target: T8, OsMADS8 aa 127-248 (Oryza sativa, UniProt Q9SAR1 127-248); test: Y2H; output trait library
T8 construct: prey, AD fusion; also called PN20778
T8 sequence: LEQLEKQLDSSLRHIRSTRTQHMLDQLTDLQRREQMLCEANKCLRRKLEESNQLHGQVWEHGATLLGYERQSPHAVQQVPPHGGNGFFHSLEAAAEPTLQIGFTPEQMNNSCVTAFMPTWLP
How it was run: as §1

[9] = biological target: T9, OsFDRMADS6 aa 100-246 (Oryza sativa, UniProt P0C5B1 100-246); test: Y2H; output trait library
T9 construct: prey, AD fusion; also called PN19766
T9 sequence: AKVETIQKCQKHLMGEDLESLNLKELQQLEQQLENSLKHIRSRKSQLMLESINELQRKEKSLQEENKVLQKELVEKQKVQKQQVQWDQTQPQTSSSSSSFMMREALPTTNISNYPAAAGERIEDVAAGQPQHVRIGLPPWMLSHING
How it was run: as §1

[10] = biological target: T10, OsFDRMADS8 aa 69-233 (Oryza sativa, UniProt A2Z9Q7 69-233); test: Y2H; input trait library
T10 construct: prey, AD fusion; also called PN20698
T10 sequence: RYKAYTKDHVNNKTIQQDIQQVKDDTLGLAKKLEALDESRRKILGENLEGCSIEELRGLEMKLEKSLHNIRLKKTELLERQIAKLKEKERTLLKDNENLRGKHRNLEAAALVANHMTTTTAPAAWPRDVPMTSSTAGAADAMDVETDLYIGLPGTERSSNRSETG
How it was run: as §1

[11] = biological target: T11, OsMADS1 aa 95-257 (Oryza sativa, UniProt A2XDY1 95-257); test: Y2H; input trait library
T11 construct: prey, AD fusion; also called PN19788
T11 sequence: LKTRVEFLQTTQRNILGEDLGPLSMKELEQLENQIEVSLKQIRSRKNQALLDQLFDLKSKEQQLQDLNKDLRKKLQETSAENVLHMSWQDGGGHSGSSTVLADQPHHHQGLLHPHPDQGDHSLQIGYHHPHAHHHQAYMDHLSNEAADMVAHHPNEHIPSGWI
How it was run: as §1

[12] = biological target: T12, OsPN29965 aa 12-124 (Oryza sativa, UniProt Q6YZ52 874-986); test: Y2H; output trait library
T12 construct: prey, AD fusion; also called Novel Protein PN29965, Fragment, Similar to A. thaliana Kinesin (Centromere Protein)-Like Heavy Chain-Like Protein
T12 sequence: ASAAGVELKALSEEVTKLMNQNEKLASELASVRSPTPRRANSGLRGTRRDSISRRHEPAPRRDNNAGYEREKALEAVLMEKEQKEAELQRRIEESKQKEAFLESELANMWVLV
How it was run: as §1

[13] = biological target: T13, OsPN23390 aa 576-738 (Oryza sativa, UniProt Q7XPJ0 598-760); test: Y2H; output trait library
T13 construct: prey, AD fusion
T13 sequence: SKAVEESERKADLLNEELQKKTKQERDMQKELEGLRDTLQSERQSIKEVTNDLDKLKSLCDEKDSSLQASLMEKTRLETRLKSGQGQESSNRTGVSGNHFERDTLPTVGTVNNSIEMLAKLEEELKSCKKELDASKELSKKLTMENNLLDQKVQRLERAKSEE
How it was run: as §1

[14] = biological target: T14, OsPN29969 aa 16-123 (Oryza sativa, UniProt A2XK00 17-123); test: Y2H; output trait library
T14 construct: prey, AD fusion; also called Novel Protein PN29969, Similar to A. thaliana Unknown Protein BAB01990
T14 sequence: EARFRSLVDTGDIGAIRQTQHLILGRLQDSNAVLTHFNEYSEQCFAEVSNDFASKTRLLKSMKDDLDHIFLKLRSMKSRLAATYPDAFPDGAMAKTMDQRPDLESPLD
How it was run: as §1

[15] = biological target: T15, PN29970 aa 1-158 (Oryza sativa, UniProt A2WY50 120-277); test: Y2H; output trait library
T15 construct: prey, AD fusion; also called Putative CorA-like Mg2+ Transporter Protein
T15 sequence: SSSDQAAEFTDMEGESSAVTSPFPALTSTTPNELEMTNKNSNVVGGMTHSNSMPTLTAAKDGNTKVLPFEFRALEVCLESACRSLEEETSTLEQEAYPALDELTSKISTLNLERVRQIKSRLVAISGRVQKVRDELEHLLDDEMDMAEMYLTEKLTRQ
How it was run: as §1

[16] = biological target: T16, OsPN29956 aa 2-373 (Oryza sativa, UniProt Q0JJ05 519-890); test: Y2H; output trait library
T16 construct: prey, AD fusion
T16 sequence: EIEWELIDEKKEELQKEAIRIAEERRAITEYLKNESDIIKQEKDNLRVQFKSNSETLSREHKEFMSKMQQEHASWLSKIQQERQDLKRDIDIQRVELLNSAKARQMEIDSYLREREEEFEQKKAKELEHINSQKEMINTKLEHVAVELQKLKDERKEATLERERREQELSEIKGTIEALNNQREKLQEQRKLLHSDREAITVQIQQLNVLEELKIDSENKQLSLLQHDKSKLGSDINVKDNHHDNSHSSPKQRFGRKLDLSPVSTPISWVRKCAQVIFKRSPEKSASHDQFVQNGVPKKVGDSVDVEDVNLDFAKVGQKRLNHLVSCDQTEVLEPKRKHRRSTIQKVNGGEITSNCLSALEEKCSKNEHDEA
How it was run: as §1

[17] = biological target: T17, OsPN23390 aa 595-845 (Oryza sativa, UniProt Q7XPJ0 617-867); test: Y2H; output trait library
T17 construct: prey, AD fusion
T17 sequence: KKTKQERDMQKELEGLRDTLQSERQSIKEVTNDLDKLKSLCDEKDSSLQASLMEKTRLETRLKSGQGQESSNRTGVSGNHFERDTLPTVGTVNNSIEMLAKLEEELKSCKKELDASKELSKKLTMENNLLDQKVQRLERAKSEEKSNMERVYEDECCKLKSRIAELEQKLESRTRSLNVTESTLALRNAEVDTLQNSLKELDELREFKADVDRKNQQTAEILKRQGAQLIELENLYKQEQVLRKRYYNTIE
How it was run: as §1

[18] = biological target: T18, OsPN29956 aa 96-235 (Oryza sativa, UniProt Q0JJ05 613-752); test: Y2H; output trait library
T18 construct: prey, AD fusion; also called Novel Protein PN29956, Fragment, nuclear matrix constituent
T18 sequence: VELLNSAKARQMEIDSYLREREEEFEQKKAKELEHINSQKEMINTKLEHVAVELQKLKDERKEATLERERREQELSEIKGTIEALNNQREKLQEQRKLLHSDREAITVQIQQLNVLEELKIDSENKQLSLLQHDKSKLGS
How it was run: as §1

[19] = biological target: T19, OsPN25381 aa 30-218 (Oryza sativa, UniProt A3BV82 165-353); test: Y2H; output trait library
T19 construct: prey, AD fusion; also called Protein 13357265 Putative CorA-like Mg2+ Transporter Protein
T19 sequence: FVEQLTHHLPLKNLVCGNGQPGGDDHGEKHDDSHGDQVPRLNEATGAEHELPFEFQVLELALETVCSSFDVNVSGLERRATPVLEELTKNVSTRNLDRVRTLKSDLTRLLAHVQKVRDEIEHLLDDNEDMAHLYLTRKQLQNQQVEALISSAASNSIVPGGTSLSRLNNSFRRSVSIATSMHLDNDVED
How it was run: as §1

Measured: binding result

B1: OsRAP1B aa 65-200 (other)
chain: KILERYERYSYAEKVLISAESDTQGNWCHEYRKLKAKVETIQKCQKHLMGEDLESLNLKELQQLEQQLENSLKHIRSRKSQLMLESINELQRKEKSLQEENKVLQKELVEKQKVQKQQLQWDQTQPQTISSSSSFM
notes: bait, Gal4 DBD fusion; also called PN20232
binds: [1]

B2: OsMADS45 aa 50-198 (other)
chain: NRGKLYEFCSTQSMTKTLEKYQKCSYAGPETAVQNRESEQLKASRNEYLKLKARVENLQRTQRNLLGEDLDSLGIKELESLEKQLDSSLKHVRTTRTKHLVDQLTELQRKEQMVSEANRCLRRKLEESNHVRGQQVWEQGCNLIGYERQ
notes: bait, Gal4 DBD fusion; also called PN20231; O. sativa MADS box protein MADS45
binds: [2] | [3] | [4] | [5] | [6]

B3: OsRAP1B aa 100-247 (other)
chain: T9 sequence with V84L, S94I, A126P
notes: as for B1
binds: [7] | [8] | [9] | [10] | [11]

B4: OsCYCOS2 aa 50-233 (other)
chain: KRGLLDKPAAKNQSGHRPMTRKFAATLANQPSIAPLAPIGSERQKRTADSAFHGPADMECTKITSDDLPLPMMSEMDEVMGSELKEIEMEDIEEAAPDIDSCDANNSLAVVEYVDEIYSFYRRSEGLSCVSPNYMLSQNDINEKMRGILIDWLIEVHYKLELLDETLFLTVNIIDRFLARENVV
notes: bait, Gal4 DBD fusion; also called PN20257; O. sativa Cyclin OsCYCOS2
binds: [12] | [13] | [14] | [15] | [16] | [17] | [18] | [19]

Source: US20060253917A1 (published 2006)
